The DeepSol protein solubility set

Test: soluble on expression in E. coli; label from the status in PepcDB or PDB records

Soluble on expression in E. coli, not soluble:
MGSDKIHHHHHHMTGRRCERTTSPGTGGRLRAEPADFQVQEVPAYLPGGSGEYLYLHVEKTRHTTAHVVRELCAQLGVRDRDVGVAGLKDRHAVTTQWLSLPAKVEPRMGDFSLPGVRILETSRHTNKLGMGHLHGNRFVVRVRGAAGMAEQAGETLATLAQGGVPNYFGPQRFGLGGLNAEEGLRVLRGESELRDPRVRRFLTSSVQSAIFNALVSLRLEREVFDRLLTGDMAKKHDTGGVFLVEDAGAETPRAQRGEVSATGTLFGRKVKPLTADAGALEAEALALFGLSPQVFASRKGDRRLIRVFPAEAEVRPEDDGYVLAFTLPKGSFATSVLREVMKTEVDAPGAGPDTTDEGEAGDGE, MGSDKIHHHHHHMTGSNKVIISCAVTGSIHTPTMTPYLPITSTEIANAATGAIDAGAAIVHLHARHPDDGRPDQTVGAFRPFIEHIKAHTDGIINLTTGGAPTMSVEERLQPALHLKPEIASLNMGSMNFGLFPMLNRYKEFKHEWERHYLEGTRDLVFRNTFKDIEYVLSSCTGNDTRFEFECYDTAHLYNLAHFLDRKLVTPPLFVQTVFGILGGIGSHADDVAHMKRTADRLFGSNYVWSVLGAGRAQMPVASIAAAQGGNVRVGIEDSIWNGPGQLAKANSDQVRRVRQILEGMGLAIATPDEARTLLHLKGRNNVAF, MGSDKIHHHHHHMTGTTENDNTGEDEKPKDEECAAIEHKDKFNPTAYLNSFYKTASEDTAMQIVLFFLPGILYRLPQKVRSVLDLGAGPTVYLPISLRDRAENIYTSDYAPANRDTLINWIEDKSDFDWDNVCSWIANIEASMETGKQMQNKTRKLMRAVLDVNVHESPVVQSIVWKENEQVQVPDKFQVVSTVFCLEYSCETLEAYFRAVRSACSLIDEGGILIQGGVLDATTYNFGGKTFRCHRLKQAHIIESLKANGMATTAEQGYKFITHDDIFLLVSKKL, MGSDKIHHHHHHMTHDLLDLLRQWHQSPDEAWVLAVLTQVQGSSYRKPGAMMLFHPMGKSYGMLSGGCLEADLRRHAQQVIQSQCVAQVEYDASDESDSSYQLGCGGIVNIMLVTVTKANDYLGFNPLLAALARGDSVEYELSLPANASPCQQASAKLSIVPLSDNLTQAQLKGAHKAVTAYKHEVLTMRLAPPIALGIFGAGLDAQPVAAMAQQLGWQVSVFDERSAYGRLYDFPSVKVVKGPFDAIEPAILKRLDAAIVMSHNLNLDAKALSLLASLSQPHSHNNLAYLALLGPPQRRDRVLRIAGLELADIKCFFSAPAGLALGGELPSSVALSIVSQCHGVLHGSAIIALDEVMGCP, MGSDKIHHHHHHMTHFGVDLWDRFTTRIGEARETLRAAGAPTGLLDQAEGARYLSRIVRLGLEMYLEGGDPDFPSFVLPSHATAKLGGDNPDNLYLSATILGDRSYRLTGNIGSVHYLSIGSKANRYAIDGTMASTGELQKEAFRADANGDFTVIASVKRPEGDVAWLPLAPDSNILQVRQTFLNRARETPARFAIERISEGLAHPAPTDPLAIERRMMAAADFVVNATRMFASWTAMFMPYPNEMRDWGQDMFHKAGGDPAIFYVHGYWKLAPGERLLIETDVPECEHWNIQVDNWWMESMDYRYLPACINAGNAEREADGSVRIVLAADDPGERNWLTTHGHSEGHLLLRWVRAASHPIPKLTLLRD, MGSDKIHHHHHHMTHQAATVHALNPATPEGLEVRLARTRAEVAAAQRIRYRVFYEEMGAKPTVAMQTLEQDFDDYDKHCDHLVVLADGDVVGTYRLIRRSAAQAVGRFYTAGEFDISPFLAVEGEILELGRSCVDARWRHRGTLQALWQGLAGYMVENDIRLLFGCGSLPGTDPEILAPQLAYLRDNHMAPPALRGRALDSAEKVDFAGIDVAWDARRVLASLPPLLKGYLRLGGVIGDGAVIDRPFNTTDVLVVVNAADIAGRYVKRFSA, MGSDKIHHHHHHMTIRINADFSQRIVVQPGDYHWVESPMPGVQRMMLDRVGGETARATSIVRYEPFSEFSPHIHSGGEEFFVLEGVFSDEHQCYGKGSYVRNPIGSSHTPKIGKEGATIFVKLQQFDEKDTEQKVIDTQTQPWFQGLVGGLKVMPLHEFESEHVALVKWAPNTQFTAHQHWGGEEIFVLEGTFHDEHGRYPKGSWLRSPHLSRHSPFTKEEGALIYVKTGHL, MGSDKIHHHHHHMTITESRNAAVAEIEEVIGDWAEALRRKDAARVLAHGTEDCLVFSLAPPLKASDADAGGLEQWFSTWKGPLGFTLEELDVSVSGDVAFATALTHLSGEKHDGQKAALWYRLTLGLTRTDRGWKIAHQHESVPFYMDGSFKAAIDLDPRSEVDWQAPSRPPMPGVIAYLNVEDADAAAAFYVRAFGAKEEDRKHAQDGKRLIHCHLTINGGALMLNDPFPEFGHPWKPPEGFVLHLVVDDADFWWNRAVEAGAEVTMPLEIAFWGDHYGQLRDPFGVTWGIVAPVKEGG, MGSDKIHHHHHHMTKKITTHLESGLFKGKPRQKTVQHRNATTTPEMRQFIQQSDYSVSQLSKILNISEATVRKWRKRDSIDNTPNTPHKLNTTLSPMEEYVMLGLRYQLKMPLDRLLKVTQEFINPNVSRSGLARCLKRFGVSKLDEFDSPFVPEKFFNQLPITQGADIQTYTVNPKTLADTLSLPSPDPDNVVQVVSLSIPPQLTKQQAYSVLLGVDFKSDWVYLDIYQDSHTQASNRYITHVLKHGPFHLRKLLVRNYHTFLARFPGASQPAAVSTSTIDAAGSQHQITEPQLSNGDSYEPIQ, MGSDKIHHHHHHMTLLIVGATGTLGRQVARRAIDEGYKVRCLVRSPKRAAFLKEWGAELVRGDLCQPQTLAEALEGVTAVIDAATSRATDSLTIKQVDWEGQIALIQAAKAASVERFIFFSIIDADKYPEVPLMEIKRCTELFLAESGINYTVLRLAGFMQGLIGQYGIPILEGQPVWVTGASSPVAYMDTLDIAKFAVRALSVPETEKQAFPVVGTRAWSAEEIINLCERLSGKEAKVRRMPINLLRAVRGLAKFFQWGWNIADRLAFTEVLASGRPLNASMDEVYTVFGLEKEQSTTLESYLQEYFSRILKKLKQLDYEKTKTKKQKDKKTPFKKVNS, MGSDKIHHHHHHMTLSSSFAQLKDFKFKFYGQIRTDFYYNSRANEETVDGLFYMYPKDEVLDGNGEDLNATSNSNFYTLYSRLGLDVAGPKLGTAKTSAKVEVDFRGSGTSYSTIRLRHAYFNLDWGKSAVLVGQTWHPLFGDVSPQILNLSVGAPFQPFSRAPQIRYRFNNKHLQLTGALVWQSQYLSQGPAGKSQEYIKKSNIPEIYVGADYKNGGFLAGAGIEMISLKPRTQSSWEEKTFDPTTNSTISIPHTYKVDERITTLSYEAHVKYTNKNWFIGAKSVLGSNLTQASGLGGFGIKHIDNKTKEQEYTPIRFSSSWLNVVYGQKWKPGIFVGYAKNLGTSDELVSEKLYGTGTNLDKLVTAGAELTYNVPHWKFGVEYTLSSAWYGKLDKSDGKIIDTHSVSNNRIVAVAMFMF, MGSDKIHHHHHHMTMPVPHAGPTPLCSNRMQVHSITQETPDVWTISLVNHDFYPYQPGQYALVSIANSEETLRAYTISSSPGLSRFITLTVRRLDDGVGSRWLTQTLKIGDYLWLSDAQGEFTCANAVSDRYLMAAAGCGVTPIMSMCRWLLANKPQIDIHIIFNVRNPQQVIFASEWQDLVQRYPQQLHLTLMAEFDAAPGFLAGRISGDLLVERVPDITNRTVMTCGPAPYMNQIETLSQQLGVASNRIFKEQFRPTDEVVDEDADQITLTISRPLKNLRVPVGISLLAALEANKVHVLAACRAGVCGSCKTRVLSGKYTTTSTMTLTPAEIEQGYVLACSCQLQGDTVLA, MGSDKIHHHHHHMTNENELLYSSELQLSALNEAIEATPDNPYLYFKRATYFYNINNFRIAQNDIQKALRMDESVAAYWLLSAQINNELKNVDRAIEEGQKALQLGNAEPILYALLANCLLEKNDTISANQYIGKLTAIAPQMAELKYVQAKKLLIGKDTSHSFLKFRECIQNNPQYIEAYIDLMSLYYKKQMYDSIMPLLIKAKRMRPNNPTLFLYEGKFYETINKNQVALAAYKEGLLCDPQAIELYKPLSDYYGRQGNYKESMYYLSKWIEKNSSDAQSIIKMGNYALKQNDEAGAVTYYKNSLSIDSSNTYLKKEIERIEKHIRYVAQDTTN, MGSDKIHHHHHHMTNLNYCRPLSLTTNRCLMNKELETLILSAVDLPTIPLVATKVIEMIEQEDVTIEKIAQTVSADPAVAARILKLSNSAYYGCQRQINTLSGAIMLLGFRTLKSLVVAASLKQICKRFGLTEKMLWEHAVGAAIAARIISANGKFINEETAFLAGLFHDIGKTIMNDLDPSKFQQVMMRCYNEGLPFEEVERSIYSFSHAEVGALVIRKWNFPEALSTAVMNHHDFPNPTLTDQYDLFLTATTCLADKFCKKLGIGERHPDEELDLAKTQEAHLLGYTPETILRDVDQFAQTFEENKSFFIND, MGSDKIHHHHHHMTQLANTKFSLNDFELRDGIYFPSDYEQLNNTQHKKTWDAIGKTYYGSQKIEKLADTSPIKQDYTLLTGTPGGTWNKFPLNKSVGSILEIGSGYGRAPLHLSKAKNLRCEKYYGIDISEPLLRRLIKVKQEYNFFPEAEFNLICTSAEILPLEDNSIDLVISNCVFMHIPDAQLRSLLADISRVLKPGGIFVFNHSFHNKSCPSHIIHNFVRKLNPFVRNPVYLKQYSSAEINEMLASAGIQTKCPQYIVEPTEEYAILPETIKGIPVPFAKAINRSLKPSDALKETLAYGFSAYSSQLD, MGSDKIHHHHHHMTQTPVTLDQKVGEKRDRMRGVFSTQEIRKVGTGTTTRKTIQKSFWYVDEGDDGVIEVQPLNSNYVPSGPKRKIDRDELLDKFAPEPEFYVQTVFPKMRELNKTIARADRHRQKGETFSAEFEYNNALKVDEENVRANFGIGLTYLERGETDKADNIFERLVKLDAAFEEEHKHLFNEFGINLRKSKMYDQAVEYYGRALELSQGDENLHLNVARAYLEKQDFPHCLEHVLRALMINPAHEAGLKFLAWMEAKKLVPEDQRAAVAEAVARARSTGGTPASAANEG, MGSDKIHHHHHHMTQVDILILSNGPGEVTTWVRPVVRALRQQFGDDRNQVRISVVLSPCSNASGKEAAIALSYPEVDRVQAAEHFWQFLLWGKTIDNWDWRSRGVVVFLGGDQIFPVVIGKKLGYRTVVYAEWEARWHNWIDRFGVMKPEVAARAPHKYAHKFTVVGDLMVEANSHSSLVIGDLSNDKELMTNDIDASTTSHSVGQKTELIGLLPGSKAAKLAQGVPLCLSIAEYVHAKRPQTKFVIPVAPTLDLQTLASFADPQRNSIAEIFGFGGAALIVPEDDRDKALLKTAKGVTVELWQENPAYHLLSQCCICLTTVGANTAELGALGVPMIVLLPTQQLDAMRAWDGLPGLLANLPGVGTPFANTINWLFLRFVRRKGLLAWPNIWAQEEIVPELMGKLQPPEIGEMVVELLAHPEKLADIRAKLRNIRGESGAALKIAQIVCEEMGK, MGSDKIHHHHHHMTRKQFETLDLDNLEQNLQQAAELIAGRIRAIACDPVKQNISFEELAAIIPCDLPDEGHGPEAVIGEVARHIEPYSTRIGHPRFLAWITTSPGPAGTIGDMLCTGLNQAPLSFKGGPAATVLEEIVLGWFAGMFGMPEGWGGTIVSGGTMANLMGLTVARRVHAPQVHARGMQGLERPLVLYVSDQGHMSVTRSAVLLGIGEDNVRAVPSDSACRMIPHELEKAVQQDRRAGRLPFCVVAQAGSVTTGAVDPLPDIAAICRRENMWMHVDAAYGGAVMLADELRPLLAGIELADSVCVDPHKWFFVPLECGITLFRSREQQLETFRAKAAYLGAENPHDLKNTTFILSRANRALKVWFAFRSYGRLRIARIIRRNMELARQLYRLMCDHPEWEPLAPAPLSIVCGRYTPSAAVRGGWTEQQIDDLQLQMIEELERSGTALLTPAAVNGRAGVRVCIANHRTTPEDITLIFNTLTAIGTRIARPDEHETAGE
